US20140274782A1, “AFFINITY REAGENTS AND METHODS FOR DETECTION, PURIFICATION, AND PROTEOMIC ANALYSIS OF METHYLATED PROTEINS” (The Board of Trustees of the Leland Stanford Junior …, priority 2013, published 2014)

How the values were obtained:
Test in all cases: ProtoArray, G9a array SNR minus GST array SNR
[1] = molecular target: PTCD2, G9a-methylated (human) (UniProt Q8WV60)
[2] = molecular target: RAB7B, G9a-methylated (human) (UniProt Q96AH8)
[3] = molecular target: SH3YL1 (clone MGC:12275), G9a-methylated (human) (UniProt Q96HL8)
[4] = molecular target: MAGEH1, G9a-methylated (human) (UniProt Q9H213)
MAGEH1, G9a-methylated (human), sequence (Q9H213 whole entry): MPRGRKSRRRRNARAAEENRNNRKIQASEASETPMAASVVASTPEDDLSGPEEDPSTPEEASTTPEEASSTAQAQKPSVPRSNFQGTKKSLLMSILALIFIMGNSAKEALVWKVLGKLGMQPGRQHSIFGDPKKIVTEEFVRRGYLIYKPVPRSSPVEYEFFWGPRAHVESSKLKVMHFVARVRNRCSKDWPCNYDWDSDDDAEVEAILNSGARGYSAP

[5] = molecular target: CAB39L, G9a-methylated (human) (UniProt Q9H9S4)
[6] = molecular target: SCGB1A1, G9a-methylated (human) (UniProt P11684)
[7] = molecular target: KIFC1, G9a-methylated (human) (UniProt Q9BW19)
[8] = molecular target: TCTA, G9a-methylated (human) (UniProt P57738)
TCTA, G9a-methylated (human), sequence (P57738 whole entry): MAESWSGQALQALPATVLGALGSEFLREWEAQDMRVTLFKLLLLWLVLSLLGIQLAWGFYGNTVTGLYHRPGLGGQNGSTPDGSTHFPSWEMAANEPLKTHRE

[9] = molecular target: ACSL4, G9a-methylated (human) (UniProt O60488)
[10] = molecular target: UBE2D2, G9a-methylated (human) (UniProt P62837)
[11] = molecular target: SMYD5, G9a-methylated (human) (UniProt Q6GMV2)
SMYD5, G9a-methylated (human), sequence (Q6GMV2 whole entry): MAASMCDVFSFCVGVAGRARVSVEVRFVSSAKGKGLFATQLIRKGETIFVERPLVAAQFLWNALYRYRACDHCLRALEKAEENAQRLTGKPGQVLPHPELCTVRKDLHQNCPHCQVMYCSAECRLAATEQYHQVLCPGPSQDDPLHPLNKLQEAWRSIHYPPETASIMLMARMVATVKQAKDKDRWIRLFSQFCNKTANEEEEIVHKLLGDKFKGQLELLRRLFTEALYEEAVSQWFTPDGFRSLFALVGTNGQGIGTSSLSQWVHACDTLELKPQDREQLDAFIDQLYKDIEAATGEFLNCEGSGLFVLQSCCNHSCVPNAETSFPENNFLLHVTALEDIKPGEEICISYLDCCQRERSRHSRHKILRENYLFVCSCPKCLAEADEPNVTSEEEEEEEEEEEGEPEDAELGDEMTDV

[12] = molecular target: NME7, G9a-methylated (human) (UniProt Q9Y5B8)
[13] = molecular target: SMYD3, G9a-methylated (human) (UniProt Q9H7B4)
[14] = molecular target: HPCAL4, G9a-methylated (human) (UniProt Q9UM19)
HPCAL4, G9a-methylated (human), sequence (Q9UM19 whole entry): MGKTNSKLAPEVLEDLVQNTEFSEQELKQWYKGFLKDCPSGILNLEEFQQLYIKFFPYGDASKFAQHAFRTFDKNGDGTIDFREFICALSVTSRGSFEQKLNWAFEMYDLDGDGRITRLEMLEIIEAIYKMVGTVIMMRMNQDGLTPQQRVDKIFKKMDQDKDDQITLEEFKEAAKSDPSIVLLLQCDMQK

[15] = molecular target: RTN1, G9a-methylated (human) (UniProt Q16799)
[16] = molecular target: CMTM3, G9a-methylated (human) (UniProt Q96MX0)
CMTM3, G9a-methylated (human), sequence (Q96MX0 whole entry): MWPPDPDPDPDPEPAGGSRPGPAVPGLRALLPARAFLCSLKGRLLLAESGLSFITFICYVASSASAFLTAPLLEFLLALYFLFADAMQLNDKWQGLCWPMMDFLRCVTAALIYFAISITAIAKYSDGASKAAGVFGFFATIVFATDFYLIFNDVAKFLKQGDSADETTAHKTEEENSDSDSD

[17] = molecular target: GPX5, G9a-methylated (human) (UniProt O75715)
GPX5, G9a-methylated (human), sequence (O75715 other isoform, or with tags, fused parts or gaps limits assumed): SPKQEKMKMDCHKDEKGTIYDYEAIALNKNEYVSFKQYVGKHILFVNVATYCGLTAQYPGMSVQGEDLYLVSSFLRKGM

[18] = molecular target: SMAP1, G9a-methylated (human) (UniProt Q8IYB5)
SMAP1, G9a-methylated (human), sequence (Q8IYB5 whole entry): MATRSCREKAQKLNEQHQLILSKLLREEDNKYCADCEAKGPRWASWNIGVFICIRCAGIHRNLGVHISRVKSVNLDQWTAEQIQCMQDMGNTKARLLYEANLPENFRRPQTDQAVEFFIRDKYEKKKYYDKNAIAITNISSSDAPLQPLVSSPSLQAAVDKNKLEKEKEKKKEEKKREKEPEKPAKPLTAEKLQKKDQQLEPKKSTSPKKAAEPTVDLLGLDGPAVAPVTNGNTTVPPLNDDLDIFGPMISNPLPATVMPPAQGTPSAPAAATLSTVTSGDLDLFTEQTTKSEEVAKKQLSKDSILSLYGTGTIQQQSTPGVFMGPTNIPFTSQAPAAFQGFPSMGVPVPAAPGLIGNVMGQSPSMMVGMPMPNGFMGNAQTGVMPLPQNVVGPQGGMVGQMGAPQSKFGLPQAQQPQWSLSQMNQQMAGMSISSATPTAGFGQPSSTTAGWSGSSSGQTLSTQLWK

[19] = molecular target: AP1S1, G9a-methylated (human) (UniProt P61966)
[20] = molecular target: RASSF4, G9a-methylated (human) (UniProt Q9H2L5)
RASSF4, G9a-methylated (human), sequence (Q9H2L5 whole entry): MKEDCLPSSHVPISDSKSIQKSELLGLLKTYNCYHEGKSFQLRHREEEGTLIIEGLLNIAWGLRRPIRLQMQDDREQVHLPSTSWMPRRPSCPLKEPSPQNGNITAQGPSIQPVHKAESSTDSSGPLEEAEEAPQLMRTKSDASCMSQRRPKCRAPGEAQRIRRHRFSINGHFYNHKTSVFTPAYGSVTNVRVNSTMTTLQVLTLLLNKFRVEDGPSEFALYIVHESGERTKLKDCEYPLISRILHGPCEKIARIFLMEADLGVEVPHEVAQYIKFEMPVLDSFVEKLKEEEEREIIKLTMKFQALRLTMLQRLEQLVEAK

[21] = molecular target: CDK5RAP3, G9a-methylated (human) (UniProt Q96JB5)
[22] = molecular target: PHF20L1, G9a-methylated (human) (UniProt A8MW92)
[23] = molecular target: CUTC, G9a-methylated (human) (UniProt Q9NTM9)
[24] = molecular target: LPAL2, G9a-methylated (human) (UniProt Q16609)
[25] = molecular target: LYPLAL1, G9a-methylated (human) (UniProt Q5VWZ2)
[26] = molecular target: CTXN1, G9a-methylated (human) (UniProt P60606)
[27] = molecular target: TMED5, G9a-methylated (human) (UniProt Q9Y3A6)
[28] = molecular target: FTL, G9a-methylated (human) (UniProt P02792)
FTL, G9a-methylated (human), sequence (P02792 whole entry): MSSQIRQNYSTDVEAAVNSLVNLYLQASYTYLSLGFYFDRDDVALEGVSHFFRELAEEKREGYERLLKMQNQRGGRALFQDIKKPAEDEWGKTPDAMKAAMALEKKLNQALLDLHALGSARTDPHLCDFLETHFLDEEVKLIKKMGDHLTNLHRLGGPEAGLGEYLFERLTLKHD

[29] = molecular target: LRRC20, G9a-methylated (human) (UniProt Q8TCA0)
LRRC20, G9a-methylated (human), sequence (Q8TCA0 whole entry): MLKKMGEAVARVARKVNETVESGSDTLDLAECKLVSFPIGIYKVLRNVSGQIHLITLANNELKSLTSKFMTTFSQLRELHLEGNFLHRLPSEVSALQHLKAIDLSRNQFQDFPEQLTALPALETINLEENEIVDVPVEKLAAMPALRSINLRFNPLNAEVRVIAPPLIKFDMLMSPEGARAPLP

[30] = molecular target: MOBKL3, G9a-methylated (human) (UniProt Q9Y3A3)
MOBKL3, G9a-methylated (human), sequence (Q9Y3A3 whole entry): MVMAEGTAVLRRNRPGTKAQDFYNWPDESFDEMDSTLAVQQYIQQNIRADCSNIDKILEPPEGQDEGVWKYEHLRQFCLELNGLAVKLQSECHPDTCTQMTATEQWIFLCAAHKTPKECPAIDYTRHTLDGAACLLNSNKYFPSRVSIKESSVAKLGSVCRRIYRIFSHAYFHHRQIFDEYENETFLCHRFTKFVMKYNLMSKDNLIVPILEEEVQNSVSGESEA

[31] = molecular target: CRYZL1, G9a-methylated (human) (UniProt O95825)
CRYZL1, G9a-methylated (human), sequence (O95825 whole entry): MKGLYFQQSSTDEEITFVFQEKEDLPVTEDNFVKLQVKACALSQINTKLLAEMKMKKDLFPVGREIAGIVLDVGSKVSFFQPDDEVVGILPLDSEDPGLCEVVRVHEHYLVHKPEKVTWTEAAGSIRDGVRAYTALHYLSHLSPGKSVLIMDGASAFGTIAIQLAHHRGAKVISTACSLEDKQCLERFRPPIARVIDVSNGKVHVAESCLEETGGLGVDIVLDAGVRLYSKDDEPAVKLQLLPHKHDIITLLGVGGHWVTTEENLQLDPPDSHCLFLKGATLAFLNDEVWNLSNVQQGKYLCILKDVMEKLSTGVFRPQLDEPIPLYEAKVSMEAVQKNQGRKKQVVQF

[32] = molecular target: RHBDD1, G9a-methylated (human) (UniProt Q8TEB9)
[33] = molecular target: GNPTAB, G9a-methylated (human) (UniProt Q3T906)
[34] = molecular target: KRR1, G9a-methylated (human) (UniProt Q13601)
KRR1, G9a-methylated (human), sequence (Q13601 whole entry): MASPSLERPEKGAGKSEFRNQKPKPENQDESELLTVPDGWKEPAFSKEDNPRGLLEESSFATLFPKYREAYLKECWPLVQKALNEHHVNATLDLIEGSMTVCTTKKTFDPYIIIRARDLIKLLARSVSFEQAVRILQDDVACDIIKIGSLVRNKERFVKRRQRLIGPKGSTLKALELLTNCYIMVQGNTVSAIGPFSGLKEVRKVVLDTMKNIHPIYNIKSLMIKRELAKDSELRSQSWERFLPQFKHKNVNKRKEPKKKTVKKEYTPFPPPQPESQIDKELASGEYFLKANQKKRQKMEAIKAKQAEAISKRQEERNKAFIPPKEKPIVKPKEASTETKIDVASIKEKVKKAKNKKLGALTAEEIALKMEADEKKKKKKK

[35] = molecular target: GPR108, G9a-methylated (human) (UniProt Q9NPR9)
GPR108, G9a-methylated (human), sequence (Q9NPR9 33-543 limits assumed): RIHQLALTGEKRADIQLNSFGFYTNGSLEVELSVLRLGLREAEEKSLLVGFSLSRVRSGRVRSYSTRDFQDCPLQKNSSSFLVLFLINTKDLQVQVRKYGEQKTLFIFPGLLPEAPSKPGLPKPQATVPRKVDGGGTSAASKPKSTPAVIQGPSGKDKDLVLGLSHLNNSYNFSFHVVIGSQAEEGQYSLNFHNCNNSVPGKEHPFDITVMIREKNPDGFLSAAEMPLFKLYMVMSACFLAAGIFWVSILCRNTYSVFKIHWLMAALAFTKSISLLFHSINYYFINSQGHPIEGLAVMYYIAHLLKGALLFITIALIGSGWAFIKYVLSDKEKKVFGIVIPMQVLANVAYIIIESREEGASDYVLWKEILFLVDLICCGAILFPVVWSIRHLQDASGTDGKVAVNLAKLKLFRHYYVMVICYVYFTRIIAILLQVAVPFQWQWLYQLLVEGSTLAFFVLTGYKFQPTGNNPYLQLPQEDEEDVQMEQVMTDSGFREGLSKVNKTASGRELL

[36] = molecular target: LYRM7, G9a-methylated (human) (UniProt Q5U5X0)
LYRM7, G9a-methylated (human), sequence (Q5U5X0 whole entry): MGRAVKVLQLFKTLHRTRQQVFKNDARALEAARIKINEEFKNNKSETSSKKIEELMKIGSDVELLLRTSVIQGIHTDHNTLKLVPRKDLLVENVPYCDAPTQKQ

[37] = molecular target: FTH1 (hit 104), G9a-methylated (human) (UniProt P02794)
FTH1 (hit 104), G9a-methylated (human), sequence (P02794 whole entry): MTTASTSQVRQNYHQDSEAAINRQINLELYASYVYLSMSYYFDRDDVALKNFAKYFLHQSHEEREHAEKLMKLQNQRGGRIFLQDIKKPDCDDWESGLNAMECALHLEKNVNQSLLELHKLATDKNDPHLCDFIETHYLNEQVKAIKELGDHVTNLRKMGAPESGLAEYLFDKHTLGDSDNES

[38] = molecular target: C12orf60, G9a-methylated (human) (UniProt Q5U649)
C12orf60, G9a-methylated (human), sequence (Q5U649 whole entry): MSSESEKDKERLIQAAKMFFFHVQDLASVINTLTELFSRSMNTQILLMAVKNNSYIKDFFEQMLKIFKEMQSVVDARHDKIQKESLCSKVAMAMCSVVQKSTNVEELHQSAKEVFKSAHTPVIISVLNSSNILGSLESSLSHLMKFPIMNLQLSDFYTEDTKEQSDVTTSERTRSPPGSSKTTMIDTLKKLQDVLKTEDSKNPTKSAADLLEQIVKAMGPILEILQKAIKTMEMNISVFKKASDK

[39] = molecular target: RPL14, G9a-methylated (human) (UniProt P50914)
[40] = molecular target: FKBP14, G9a-methylated (human) (UniProt Q9NWM8)
FKBP14, G9a-methylated (human), sequence (Q9NWM8 20-211 limits assumed): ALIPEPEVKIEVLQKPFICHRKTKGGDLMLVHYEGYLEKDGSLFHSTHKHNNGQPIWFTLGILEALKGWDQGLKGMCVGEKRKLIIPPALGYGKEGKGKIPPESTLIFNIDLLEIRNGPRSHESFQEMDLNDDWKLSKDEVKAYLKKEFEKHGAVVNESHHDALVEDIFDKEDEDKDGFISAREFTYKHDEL

RAB7B, G9a-methylated (human), sequence (Q96AH8 whole entry): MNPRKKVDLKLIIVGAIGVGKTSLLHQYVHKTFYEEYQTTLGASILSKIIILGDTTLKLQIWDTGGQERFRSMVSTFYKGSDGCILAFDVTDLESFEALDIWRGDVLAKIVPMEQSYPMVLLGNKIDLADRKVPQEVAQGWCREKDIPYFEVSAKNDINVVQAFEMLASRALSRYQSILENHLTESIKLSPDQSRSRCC

3× Flag-3×MBT (designed binder) showed a G9a-GST [1] of 18.7, a G9a-GST [2] of 13 and a G9a-GST [3] of 12.7. For the same substance, the G9a-GST [4] was 42.9, the G9a-GST [5] was 14.5 and the G9a-GST [6] was 18.4. For the same substance, the G9a-GST [7] was 62.4, the G9a-GST [8] was 15.2 and the G9a-GST [9] was 12.1. It also gave a G9a-GST [10] of 37.6, a G9a-GST [11] of 19.5 and a G9a-GST [12] of 13.6. The G9a-GST [13] was 16.3, the G9a-GST [14] was 12.3 and the G9a-GST [15] was 13.8. For the same substance, the G9a-GST [16] was 13.7, the G9a-GST [17] was 25.6 and the G9a-GST [18] was 20.2. The G9a-GST [19] was 15.4, the G9a-GST [20] was 14.6 and the G9a-GST [21] was 14.1. For the same substance, the G9a-GST [22] was 20.4, the G9a-GST [23] was 12.9 and the G9a-GST [24] was 33. The G9a-GST [25] was 15.6, the G9a-GST [26] was 18.7 and the G9a-GST [27] was 15.5. For the same substance, the G9a-GST [28] was 33.5, the G9a-GST [29] was 30.9 and the G9a-GST [30] was 14. For the same substance, the G9a-GST [31] was 12.6, the G9a-GST [32] was 12.4 and the G9a-GST [33] was 15.3. The G9a-GST [34] was 29.3, the G9a-GST [35] was 20 and the G9a-GST [36] was 16.9. The G9a-GST [37] was 31.2, the G9a-GST [38] was 12.5 and the G9a-GST [39] was 17.7. The G9a-GST [40] was 13.7.
